Assay results taken from PMC7041945, “Misfolded proteins bind and activate death receptor 5 to trigger apoptosis during unresolved endoplasmic reticulum stress” (eLife, 2020).

System: CHOP, BiP, and DR5 mRNA in HCT116 cells
Assay: qPCR of UPR target transcripts (CHOP, BiP, DR5)
Format: cell-based, Homo sapiens
Settings: for avg. fold induction relative to empty traffo, BiP / avg. fold induction relative to empty traffo, CHOP / avg. fold induction relative to empty traffo, DR5 total: norm to GAPDH; for 2^-(deltaCq) BiP / 2^-(deltaCq) CHOP / 2^-(deltaCq) DR5 total: vs GAPDH
Procedure: Cells were grown in 6-well plates and harvested with 0.5 ml of TRIzol reagent (Life Technologies) per manufacturer’s protocol to extract RNA. For cDNA synthesis, 500 ng of total RNA was reverse transcribed with 2 μl of the SuperScript VILO master mix (Life Technologies # 11755050) in a total reaction volume of 10 μl following the manufacturer’s protocol for reaction temperature and duration. The reverse transcription product was diluted to 200 μl with 10 mM Tris-HCl pH 8.2 and used at 1:100 dilution for subsequent RT-PCR reactions.
PCR samples were prepared as described by manufacturer’s protocols from iQ SYBR Green Supermix (BioRad #17088800).
For each experiment, qRT-PCR reactions were set up in triplicate and run using a CFX96 Real Time System (Bio-Rad). Quantitation cycles were determined with CFX Manager 3.0 software (Bio-Rad) and then normalized to GAPDH as an internal control.

[1] = HCT116, pRK CHOP 31 ng, Sheet1, replicate 1

B1: pRK CHOP (protein, UniProt P35638 1-169, looked up)
DNA damage-inducible …: MAAESLPFSFGTLSSWELEAWYEDLQEVLSSDENGGTYVSPPGNEEEESKIFTTLDPASLAWLTEEEPEPAEVTSTSQSPHSPDSSQSSLAQEEEEEDQGRTRKRKQSGHSPARAGKQRMKEKEQENERKVAQLAEENERLKQEIERLTREVEATRRALIDRMVNLHQA
modifications: expression plasmid
In the case of B1, the “avg. fold induction relative to empty traffo, BiP” value (HCT116, 31 ng) is reported as 0.2997 fold, the “avg. fold induction relative to empty traffo, CHOP” value (HCT116, 31 ng) is reported as 18.7911 fold and the “fold induction relative to empty traffo, BiP” value (HCT116, 31 ng, replicate 1) is reported as 0.28 fold. The “fold induction relative to empty traffo, CHOP” value (HCT116, 31 ng, replicate 1) was 16.3851 fold, the “fold induction relative to empty traffo, DR5 total” value (HCT116, 31 ng, replicate 1) was 0.9029 fold and the “fold induction relative to empty traffo, BiP” value (HCT116, 31 ng, replicate 2) was 0.3243 fold. For the same molecule, the “fold induction relative to empty traffo, CHOP” value (HCT116, 31 ng, replicate 2) was 19.1521 fold, the “fold induction relative to empty traffo, DR5 total” value (HCT116, 31 ng, replicate 2) was 0.9212 fold and the “fold induction relative to empty traffo, BiP” value (HCT116, 31 ng, replicate 3) was 0.2949 fold. For the same molecule, the “fold induction relative to empty traffo, CHOP” value (HCT116, 31 ng, replicate 3) was 20.8362 fold, the “fold induction relative to empty traffo, DR5 total” value (HCT116, 31 ng, replicate 3) was 2.023 fold and the “2^-(deltaCq) BiP” value (HCT116, 31 ng, replicate 1) was 0.02437. For the same molecule, the “2^-(deltaCq) CHOP” value (HCT116, 31 ng, replicate 1) was 0.1729, the “2^-(deltaCq) DR5 total” value (HCT116, 31 ng, replicate 1) was 0.01464 and the “2^-(deltaCq) BiP” value (HCT116, 31 ng, replicate 2) was 0.02822. For the same molecule, the “2^-(deltaCq) CHOP” value (HCT116, 31 ng, replicate 2) was 0.2021, the “2^-(deltaCq) DR5 total” value (HCT116, 31 ng, replicate 2) was 0.01494 and the “2^-(deltaCq) BiP” value (HCT116, 31 ng, replicate 3) was 0.02567. The “2^-(deltaCq) CHOP” value (HCT116, 31 ng, replicate 3) was 0.2199, the “2^-(deltaCq) DR5 total” value (HCT116, 31 ng, replicate 3) was 0.0328 and the “avg. fold induction relative to empty traffo, BiP” value (HCT116, 62 ng) was 0.334 fold. For the same molecule, the “avg. fold induction relative to empty traffo, CHOP” value (HCT116, 62 ng) was 50.7204 fold, the “avg. fold induction relative to empty traffo, DR5 total” value (HCT116, 62 ng) was 0.954 fold and the “fold induction relative to empty traffo, BiP” value (HCT116, 62 ng, replicate 1) was 0.3561 fold. For the same molecule, the “fold induction relative to empty traffo, CHOP” value (HCT116, 62 ng, replicate 1) was 46.9347 fold, the “fold induction relative to empty traffo, DR5 total” value (HCT116, 62 ng, replicate 1) was 0.9555 fold and the “fold induction relative to empty traffo, BiP” value (HCT116, 62 ng, replicate 2) was 0.3335 fold. For the same molecule, the “fold induction relative to empty traffo, CHOP” value (HCT116, 62 ng, replicate 2) was 49.2833 fold, the “fold induction relative to empty traffo, DR5 total” value (HCT116, 62 ng, replicate 2) was 1.032 fold and the “fold induction relative to empty traffo, BiP” value (HCT116, 62 ng, replicate 3) was 0.3124 fold. The “fold induction relative to empty traffo, CHOP” value (HCT116, 62 ng, replicate 3) was 55.9433 fold, the “fold induction relative to empty traffo, DR5 total” value (HCT116, 62 ng, replicate 3) was 0.8745 fold and the “2^-(deltaCq) BiP” value (HCT116, 62 ng, replicate 1) was 0.031. The “2^-(deltaCq) CHOP” value (HCT116, 62 ng, replicate 1) was 0.4954, the “2^-(deltaCq) DR5 total” value (HCT116, 62 ng, replicate 1) was 0.01549 and the “2^-(deltaCq) BiP” value (HCT116, 62 ng, replicate 2) was 0.02903. For the same molecule, the “2^-(deltaCq) CHOP” value (HCT116, 62 ng, replicate 2) was 0.5202, the “2^-(deltaCq) DR5 total” value (HCT116, 62 ng, replicate 2) was 0.01673 and the “2^-(deltaCq) BiP” value (HCT116, 62 ng, replicate 3) was 0.02719. The “2^-(deltaCq) CHOP” value (HCT116, 62 ng, replicate 3) was 0.5905, the “2^-(deltaCq) DR5 total” value (HCT116, 62 ng, replicate 3) was 0.01418 and the “avg. fold induction relative to empty traffo, BiP” value (HCT116, 125 ng) was 0.5304 fold. The “avg. fold induction relative to empty traffo, CHOP” value (HCT116, 125 ng) was 220.701 fold, the “avg. fold induction relative to empty traffo, DR5 total” value (HCT116, 125 ng) was 1.17 fold and the “fold induction relative to empty traffo, BiP” value (HCT116, 125 ng, replicate 1) was 0.6342 fold. The “fold induction relative to empty traffo, CHOP” value (HCT116, 125 ng, replicate 1) was 230.561 fold, the “fold induction relative to empty traffo, DR5 total” value (HCT116, 125 ng, replicate 1) was 1.242 fold and the “fold induction relative to empty traffo, BiP” value (HCT116, 125 ng, replicate 2) was 0.5274 fold. The “fold induction relative to empty traffo, CHOP” value (HCT116, 125 ng, replicate 2) was 173.762 fold, the “fold induction relative to empty traffo, DR5 total” value (HCT116, 125 ng, replicate 2) was 1.206 fold and the “fold induction relative to empty traffo, BiP” value (HCT116, 125 ng, replicate 3) was 0.4295 fold. For the same molecule, the “fold induction relative to empty traffo, CHOP” value (HCT116, 125 ng, replicate 3) was 257.78 fold, the “fold induction relative to empty traffo, DR5 total” value (HCT116, 125 ng, replicate 3) was 1.064 fold and the “2^-(deltaCq) BiP” value (HCT116, 125 ng, replicate 1) was 0.0552. For the same molecule, the “2^-(deltaCq) CHOP” value (HCT116, 125 ng, replicate 1) was 2.434, the “2^-(deltaCq) DR5 total” value (HCT116, 125 ng, replicate 1) was 0.02013 and the “2^-(deltaCq) BiP” value (HCT116, 125 ng, replicate 2) was 0.04591. For the same molecule, the “2^-(deltaCq) CHOP” value (HCT116, 125 ng, replicate 2) was 1.834, the “2^-(deltaCq) DR5 total” value (HCT116, 125 ng, replicate 2) was 0.01955 and the “2^-(deltaCq) BiP” value (HCT116, 125 ng, replicate 3) was 0.03739. The “2^-(deltaCq) CHOP” value (HCT116, 125 ng, replicate 3) was 2.7208, the “2^-(deltaCq) DR5 total” value (HCT116, 125 ng, replicate 3) was 0.01725 and the “avg. fold induction relative to empty traffo, BiP” value (HCT116, 250 ng) was 0.5014 fold. The “avg. fold induction relative to empty traffo, CHOP” value (HCT116, 250 ng) was 408.627 fold, the “avg. fold induction relative to empty traffo, DR5 total” value (HCT116, 250 ng) was 0.9069 fold and the “fold induction relative to empty traffo, BiP” value (HCT116, 250 ng, replicate 1) was 0.6408 fold. The “fold induction relative to empty traffo, CHOP” value (HCT116, 250 ng, replicate 1) was 391.947 fold, the “fold induction relative to empty traffo, DR5 total” value (HCT116, 250 ng, replicate 1) was 0.8794 fold and the “fold induction relative to empty traffo, BiP” value (HCT116, 250 ng, replicate 2) was 0.4446 fold. For the same molecule, the “fold induction relative to empty traffo, CHOP” value (HCT116, 250 ng, replicate 2) was 418.188 fold, the “fold induction relative to empty traffo, DR5 total” value (HCT116, 250 ng, replicate 2) was 0.9861 fold and the “fold induction relative to empty traffo, BiP” value (HCT116, 250 ng, replicate 3) was 0.4188 fold. For the same molecule, the “fold induction relative to empty traffo, CHOP” value (HCT116, 250 ng, replicate 3) was 415.746 fold, the “fold induction relative to empty traffo, DR5 total” value (HCT116, 250 ng, replicate 3) was 0.8551 fold and the “2^-(deltaCq) BiP” value (HCT116, 250 ng, replicate 1) was 0.05578. For the same molecule, the “2^-(deltaCq) CHOP” value (HCT116, 250 ng, replicate 1) was 4.1369, the “2^-(deltaCq) DR5 total” value (HCT116, 250 ng, replicate 1) was 0.01426 and the “2^-(deltaCq) BiP” value (HCT116, 250 ng, replicate 2) was 0.0387. For the same molecule, the “2^-(deltaCq) CHOP” value (HCT116, 250 ng, replicate 2) was 4.414, the “2^-(deltaCq) DR5 total” value (HCT116, 250 ng, replicate 2) was 0.01599 and the “2^-(deltaCq) BiP” value (HCT116, 250 ng, replicate 3) was 0.03645. The “2^-(deltaCq) CHOP” value (HCT116, 250 ng, replicate 3) was 4.3881, the “2^-(deltaCq) DR5 total” value (HCT116, 250 ng, replicate 3) was 0.01387 and the “avg. fold induction relative to empty traffo, BiP” value (HCT116, 500 ng) was 0.5375 fold. The “avg. fold induction relative to empty traffo, CHOP” value (HCT116, 500 ng) was 1484.73 fold, the “avg. fold induction relative to empty traffo, DR5 total” value (HCT116, 500 ng) was 1.792 fold and the “fold induction relative to empty traffo, BiP” value (HCT116, 500 ng, replicate 1) was 0.5213 fold. The “fold induction relative to empty traffo, CHOP” value (HCT116, 500 ng, replicate 1) was 1691.32 fold, the “fold induction relative to empty traffo, DR5 total” value (HCT116, 500 ng, replicate 1) was 1.92 fold and the “fold induction relative to empty traffo, BiP” value (HCT116, 500 ng, replicate 2) was 0.6638 fold. The “fold induction relative to empty traffo, CHOP” value (HCT116, 500 ng, replicate 2) was 1384.67 fold, the “fold induction relative to empty traffo, DR5 total” value (HCT116, 500 ng, replicate 2) was 1.724 fold and the “fold induction relative to empty traffo, BiP” value (HCT116, 500 ng, replicate 3) was 0.4274 fold. For the same molecule, the “fold induction relative to empty traffo, CHOP” value (HCT116, 500 ng, replicate 3) was 1378.19 fold, the “fold induction relative to empty traffo, DR5 total” value (HCT116, 500 ng, replicate 3) was 1.731 fold and the “2^-(deltaCq) BiP” value (HCT116, 500 ng, replicate 1) was 0.04537. The “2^-(deltaCq) CHOP” value (HCT116, 500 ng, replicate 1) was 17.8515, the “2^-(deltaCq) DR5 total” value (HCT116, 500 ng, replicate 1) was 0.03114 and the “2^-(deltaCq) BiP” value (HCT116, 500 ng, replicate 2) was 0.05778. The “2^-(deltaCq) CHOP” value (HCT116, 500 ng, replicate 2) was 14.6148, the “2^-(deltaCq) DR5 total” value (HCT116, 500 ng, replicate 2) was 0.02796 and the “2^-(deltaCq) BiP” value (HCT116, 500 ng, replicate 3) was 0.0372. The “2^-(deltaCq) CHOP” value (HCT116, 500 ng, replicate 3) was 14.5464, the “2^-(deltaCq) DR5 total” value (HCT116, 500 ng, replicate 3) was 0.02807 and the “CHOP (qPCR CHOP, Sheet1)” value [1] was 16.3851. The “DR5 (qPCR CHOP, Sheet1)” value [1] was 0.9029 and the “GADD34 (qPCR CHOP, Sheet1)” value [1] was 0.958.
